Measurements published in article PMC12433258, “Binding Differences of the Peptide‐Substrate–Binding Domain of Collagen Prolyl 4‐Hydroxylases I and II for Proline‐ and Hydroxyproline‐Rich Peptides” (Proteins, 2025).

Molecular target: the molecule itself
Test: crystal structure; PSB‐I^144–244 crystallized without peptide, hanging drop, 4°C; 1 M sodium citrate, 0.1 M CHES, pH 9.5; contact between crystallographically related chains
Settings: not given

Binder	binding result
PSB‐I^144–244 construct (longer PSB‐I construct of human C‐P4H‐I α‐subunit) (domain or fragment, numbers count on: the mature protein (α-I subunit after cleavage of the signal peptide); C-terminal Leu-Glu-(His)6 tag; The C-terminal Leu-Glu-His6 tag is kept and is written as a part, not under tags; also called longer PSB‐I^144–244 variant) FLTAEDCFELGKVAYTEADYYHTELWMEQALRQLDEGEISTIDKVSVLDYLSYAVYQQGDLDKALLLTKKLLELDPEHQRANGNLKYFEYIMAKEKDVNKSLEHHHHHH	binds

Molecular target: T1, PSB‐I^143–238 construct (peptide‐substrate–binding domain of the α‐I subunit of human collagen prolyl … (human, UniProt P13674 160-255))
T1 construct: numbers count on: the mature protein (α-I subunit after cleavage of the signal peptide); Monomer by SEC-MALS; also called PSB‐I construct; PSB‐I domain; source: E. coli Rosetta(DE3)pLysS, pET22b(+), purified (Ni‐NTA, Superdex75 SEC); not shown: Leu-Glu-His6, C-terminal, kept
T1 sequence (P13674 160-255): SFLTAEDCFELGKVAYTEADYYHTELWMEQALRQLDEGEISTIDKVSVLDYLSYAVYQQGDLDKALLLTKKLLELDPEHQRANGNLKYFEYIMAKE
Test: ITC; 3 mM peptide titrated into 50 μM PSB‐I^143–238 in the cell; 20 mM Bis‐Tris, 100 mM glycine, pH 6.8; 25°C; one‐set‐of‐sites model with fixed stoichiometry (n = 1); three measurements
Settings: both partners purified

Kd	dH	Binder
80.9 µM	-9.5 kcal/mol	PPPPPPPPP (polyproline peptide of 9 residues, free amino and free carboxylate ends; printed as (Pro)9; also called P9; source: synthetic peptide; bought: TAG Copenhagen A/S) [(Pro)9 peptide]
309 µM	-13.6 kcal/mol	PPGPPGPPG (collagen-like model peptide, 9 residues, free amino and free carboxylate ends; also called (PPG)3; source: synthetic peptide; bought: TAG Copenhagen A/S) [PPG‐PPG‐PPG peptide]
91.3 µM	-12.4 kcal/mol	PPGPAGPPG (collagen-like model peptide, 9 residues, free amino and free carboxylate ends; also called PxGP‐peptide; source: synthetic peptide; bought: TAG Copenhagen A/S) [PPG‐PAG‐PPG peptide]
37 µM	-14.9 kcal/mol	PPGPRGPPG (collagen-like model peptide, 9 residues, free amino and free carboxylate ends; also called PxGP‐peptide; source: synthetic peptide; bought: TAG Copenhagen A/S) [PPG‐PRG‐PPG peptide]
84.3 µM	-13.2 kcal/mol	PPGPEGPPG (collagen-like model peptide, 9 residues, free amino and free carboxylate ends; also called PxGP‐peptide; source: synthetic peptide; bought: TAG Copenhagen A/S) [PPG‐PEG‐PPG peptide]
